Data: patent US20260226184A1

Legend:
[1] = molecular target: IL-2R (IL-2 receptor on the BCMA CAR T cells) (human) (UniProt P01589); experiment: cell-based or functional assay
[2] = molecular target: CAR that binds human CD19 (scFv derived from anti-human CD19 antibody clone FMC69, human CD28 and CD3zeta intracellular signaling domains), on human T cells; experiment: flow cytometry, dose-dependent staining of CD19 CAR T cells, y-axis %Binding; the value stands above the plot, in which only this curve rises
[3] = molecular target: CAR that binds human BCMA (scFv derived from anti-human BCMA antibody clone MSK54, human 41BB and CD3zeta intracellular signaling domains), on human T cells; experiment: flow cytometry, staining of BCMA CAR T cells with varying concentrations, Alexa647-labeled anti-FLAG secondary
[4] = molecular target: CAR that binds human BCMA (scFv derived from anti-human BCMA antibody clone MSK54, human 41BB and CD3zeta intracellular signaling domains), on human T cells; experiment: cell-based or functional assay
[5] = molecular target: CAR that binds human BCMA (scFv derived from anti-human BCMA antibody clone MSK54, human 41BB and CD3zeta intracellular signaling domains), on human T cells; experiment: flow cytometry, anti-CD45 (y) against AF647-tagged BCMA-CH3 (x); CAR only mouse, upper row (CAR T cells without CAR-engager; the text says little to no CD45+ cells persisted); Lymph node
[6] = molecular target: CAR that binds human BCMA (scFv derived from anti-human BCMA antibody clone MSK54, human 41BB and CD3zeta intracellular signaling domains), on human T cells; experiment: flow cytometry, anti-CD45 (y) against AF647-tagged BCMA-CH3 (x); CAR only mouse, upper row (CAR T cells without CAR-engager; the text says little to no CD45+ cells persisted); Spleen
[7] = molecular target: CAR that binds human BCMA (scFv derived from anti-human BCMA antibody clone MSK54, human 41BB and CD3zeta intracellular signaling domains), on human T cells; experiment: flow cytometry, anti-CD45 (y) against AF647-tagged BCMA-CH3 (x); CAR only mouse, lower row (CAR T cells without CAR-engager; the text says little to no CD45+ cells persisted); Bone Marrow Right
[8] = molecular target: CAR that binds human BCMA (scFv derived from anti-human BCMA antibody clone MSK54, human 41BB and CD3zeta intracellular signaling domains), on human T cells; experiment: flow cytometry, anti-CD45 (y) against AF647-tagged BCMA-CH3 (x); CAR + Treatment mouse (BCMA CAR T cells and BCMA-muIL2); Spleen
[9] = molecular target: CAR that binds human BCMA (scFv derived from anti-human BCMA antibody clone MSK54, human 41BB and CD3zeta intracellular signaling domains), on human T cells; experiment: flow cytometry, anti-CD45 (y) against AF647-tagged BCMA-CH3 (x); CAR + Treatment mouse (BCMA CAR T cells and BCMA-muIL2); Lymph node
[10] = molecular target: CAR that binds human BCMA (scFv derived from anti-human BCMA antibody clone MSK54, human 41BB and CD3zeta intracellular signaling domains), on human T cells; experiment: flow cytometry, anti-CD45 (y) against AF647-tagged BCMA-CH3 (x); CAR only mouse, lower row (CAR T cells without CAR-engager; the text says little to no CD45+ cells persisted); Lymph node
[11] = molecular target: CAR that binds human BCMA (scFv derived from anti-human BCMA antibody clone MSK54, human 41BB and CD3zeta intracellular signaling domains), on human T cells; experiment: flow cytometry, anti-CD45 (y) against AF647-tagged BCMA-CH3 (x); CAR only mouse, lower row (CAR T cells without CAR-engager; the text says little to no CD45+ cells persisted); Lung
[12] = molecular target: CAR that binds human BCMA (scFv derived from anti-human BCMA antibody clone MSK54, human 41BB and CD3zeta intracellular signaling domains), on human T cells; experiment: flow cytometry, anti-CD45 (y) against AF647-tagged BCMA-CH3 (x); CAR only mouse, upper row (CAR T cells without CAR-engager; the text says little to no CD45+ cells persisted); Bone Marrow Right
[13] = molecular target: CAR that binds human BCMA (scFv derived from anti-human BCMA antibody clone MSK54, human 41BB and CD3zeta intracellular signaling domains), on human T cells; experiment: flow cytometry, anti-CD45 (y) against AF647-tagged BCMA-CH3 (x); CAR + Treatment mouse (BCMA CAR T cells and BCMA-muIL2); Blood
[14] = molecular target: CAR that binds human BCMA (scFv derived from anti-human BCMA antibody clone MSK54, human 41BB and CD3zeta intracellular signaling domains), on human T cells; experiment: flow cytometry, anti-CD45 (y) against AF647-tagged BCMA-CH3 (x); CAR + Treatment mouse (BCMA CAR T cells and BCMA-muIL2); Kidney
[15] = molecular target: CAR that binds human BCMA (scFv derived from anti-human BCMA antibody clone MSK54, human 41BB and CD3zeta intracellular signaling domains), on human T cells; experiment: flow cytometry, anti-CD45 (y) against AF647-tagged BCMA-CH3 (x); CAR only mouse, upper row (CAR T cells without CAR-engager; the text says little to no CD45+ cells persisted); Liver
[16] = molecular target: CAR that binds human BCMA (scFv derived from anti-human BCMA antibody clone MSK54, human 41BB and CD3zeta intracellular signaling domains), on human T cells; experiment: flow cytometry, anti-CD45 (y) against AF647-tagged BCMA-CH3 (x); CAR + Treatment mouse (BCMA CAR T cells and BCMA-muIL2); Bone Marrow Right
[17] = molecular target: CAR that binds human BCMA (scFv derived from anti-human BCMA antibody clone MSK54, human 41BB and CD3zeta intracellular signaling domains), on human T cells; experiment: flow cytometry, anti-CD45 (y) against AF647-tagged BCMA-CH3 (x); CAR only mouse, upper row (CAR T cells without CAR-engager; the text says little to no CD45+ cells persisted); Lung
[18] = molecular target: CAR that binds human BCMA (scFv derived from anti-human BCMA antibody clone MSK54, human 41BB and CD3zeta intracellular signaling domains), on human T cells; experiment: flow cytometry, anti-CD45 (y) against AF647-tagged BCMA-CH3 (x); CAR + Treatment mouse (BCMA CAR T cells and BCMA-muIL2); Liver
[19] = molecular target: CAR that binds human BCMA (scFv derived from anti-human BCMA antibody clone MSK54, human 41BB and CD3zeta intracellular signaling domains), on human T cells; experiment: flow cytometry, anti-CD45 (y) against AF647-tagged BCMA-CH3 (x); CAR only mouse, lower row (CAR T cells without CAR-engager; the text says little to no CD45+ cells persisted); Kidney
[20] = molecular target: CAR that binds human BCMA (scFv derived from anti-human BCMA antibody clone MSK54, human 41BB and CD3zeta intracellular signaling domains), on human T cells; experiment: flow cytometry, anti-CD45 (y) against AF647-tagged BCMA-CH3 (x); CAR + Treatment mouse (BCMA CAR T cells and BCMA-muIL2); Bone Marrow Left
[21] = molecular target: CAR that binds human BCMA (scFv derived from anti-human BCMA antibody clone MSK54, human 41BB and CD3zeta intracellular signaling domains), on human T cells; experiment: flow cytometry, anti-CD45 (y) against AF647-tagged BCMA-CH3 (x); CAR only mouse, lower row (CAR T cells without CAR-engager; the text says little to no CD45+ cells persisted); Bone Marrow Left
[22] = molecular target: CAR that binds human BCMA (scFv derived from anti-human BCMA antibody clone MSK54, human 41BB and CD3zeta intracellular signaling domains), on human T cells; experiment: flow cytometry, anti-CD45 (y) against AF647-tagged BCMA-CH3 (x); CAR only mouse, upper row (CAR T cells without CAR-engager; the text says little to no CD45+ cells persisted); Bone Marrow Left
[23] = molecular target: CAR that binds human BCMA (scFv derived from anti-human BCMA antibody clone MSK54, human 41BB and CD3zeta intracellular signaling domains), on human T cells; experiment: flow cytometry, anti-CD45 (y) against AF647-tagged BCMA-CH3 (x); CAR only mouse, lower row (CAR T cells without CAR-engager; the text says little to no CD45+ cells persisted); Liver
[24] = molecular target: CAR that binds human BCMA (scFv derived from anti-human BCMA antibody clone MSK54, human 41BB and CD3zeta intracellular signaling domains), on human T cells; experiment: flow cytometry, anti-CD45 (y) against AF647-tagged BCMA-CH3 (x); CAR only mouse, upper row (CAR T cells without CAR-engager; the text says little to no CD45+ cells persisted); Blood
[25] = molecular target: CAR that binds human BCMA (scFv derived from anti-human BCMA antibody clone MSK54, human 41BB and CD3zeta intracellular signaling domains), on human T cells; experiment: flow cytometry, anti-CD45 (y) against AF647-tagged BCMA-CH3 (x); CAR + Treatment mouse (BCMA CAR T cells and BCMA-muIL2); Lung
[26] = molecular target: CAR that binds human BCMA (scFv derived from anti-human BCMA antibody clone MSK54, human 41BB and CD3zeta intracellular signaling domains), on human T cells; experiment: flow cytometry, anti-CD45 (y) against AF647-tagged BCMA-CH3 (x); CAR + Treatment mouse (BCMA CAR T cells and BCMA-muIL2); Tumor Eye
[27] = molecular target: CAR that binds human BCMA (scFv derived from anti-human BCMA antibody clone MSK54, human 41BB and CD3zeta intracellular signaling domains), on human T cells; experiment: flow cytometry, anti-CD45 (y) against AF647-tagged BCMA-CH3 (x); CAR only mouse, lower row (CAR T cells without CAR-engager; the text says little to no CD45+ cells persisted); Blood
[28] = molecular target: CAR that binds human BCMA (scFv derived from anti-human BCMA antibody clone MSK54, human 41BB and CD3zeta intracellular signaling domains), on human T cells; experiment: flow cytometry, dose-dependent staining of BCMA CAR T cells, secondary Alexa647-labeled anti-FLAG antibody, y-axis %Binding
[29] = molecular target: CAR that binds human BCMA (scFv derived from anti-human BCMA antibody clone MSK54, human 41BB and CD3zeta intracellular signaling domains), on human T cells; experiment: flow cytometry, anti-CD45 (y) against AF647-tagged BCMA-CH3 (x); CAR only mouse, upper row (CAR T cells without CAR-engager; the text says little to no CD45+ cells persisted); Kidney
[30] = molecular target: CAR that binds human BCMA (scFv derived from anti-human BCMA antibody clone MSK54, human 41BB and CD3zeta intracellular signaling domains), on human T cells; experiment: cell-based or functional assay; remark: listed apart in the source

Sequence of UniProt P01589 (P01589 22-272, chain 1 of 3): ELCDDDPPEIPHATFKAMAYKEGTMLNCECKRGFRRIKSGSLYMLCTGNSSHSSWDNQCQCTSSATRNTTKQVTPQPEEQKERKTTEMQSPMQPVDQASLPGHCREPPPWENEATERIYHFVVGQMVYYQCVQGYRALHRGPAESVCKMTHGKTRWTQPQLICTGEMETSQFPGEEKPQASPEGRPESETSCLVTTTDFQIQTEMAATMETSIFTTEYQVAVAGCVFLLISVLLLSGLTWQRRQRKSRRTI
Sequence of UniProt P01589 (P14784 27-551, chain 2 of 3, further chain): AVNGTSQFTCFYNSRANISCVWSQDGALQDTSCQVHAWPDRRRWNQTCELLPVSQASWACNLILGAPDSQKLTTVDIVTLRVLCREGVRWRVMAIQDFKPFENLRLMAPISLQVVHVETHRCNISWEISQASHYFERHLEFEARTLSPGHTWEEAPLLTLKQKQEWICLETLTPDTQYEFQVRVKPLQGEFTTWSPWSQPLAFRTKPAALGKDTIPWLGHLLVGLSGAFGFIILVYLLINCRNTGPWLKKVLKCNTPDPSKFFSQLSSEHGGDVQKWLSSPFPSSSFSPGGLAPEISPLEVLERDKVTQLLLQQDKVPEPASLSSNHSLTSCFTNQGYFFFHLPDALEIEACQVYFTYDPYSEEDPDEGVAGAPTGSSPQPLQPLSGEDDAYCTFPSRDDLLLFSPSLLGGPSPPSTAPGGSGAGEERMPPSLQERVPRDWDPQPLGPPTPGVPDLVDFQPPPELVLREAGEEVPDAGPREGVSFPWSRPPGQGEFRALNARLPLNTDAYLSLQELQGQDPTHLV
Sequence of UniProt P01589 (P31785 23-369, chain 3 of 3, further chain): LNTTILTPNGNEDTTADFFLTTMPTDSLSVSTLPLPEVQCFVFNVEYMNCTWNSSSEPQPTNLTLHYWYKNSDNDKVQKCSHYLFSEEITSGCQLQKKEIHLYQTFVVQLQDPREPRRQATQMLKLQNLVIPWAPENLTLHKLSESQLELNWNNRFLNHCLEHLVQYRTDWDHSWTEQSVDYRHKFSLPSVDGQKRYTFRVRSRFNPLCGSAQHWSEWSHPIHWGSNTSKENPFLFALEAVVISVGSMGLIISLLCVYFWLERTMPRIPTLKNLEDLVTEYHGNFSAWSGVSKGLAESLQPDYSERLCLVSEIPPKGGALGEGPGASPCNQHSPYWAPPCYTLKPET

VHH-muIL2 (control construct with an irrelevant nanobody in place of the BCMA ectodomain in the CH3-muIL2 construct)
phosphorylation of STAT5 (pY694) in BCMA CAR T cells, EC50 [1]: 3.9 nM

CD19-muIL2 CAR-engager (from UniProt P15391 20-291)
EC50 [2]: 0.59 nM

BCMA-muIL2 CAR-engager (BCMA-CH3-muIL2-muIL2)
EC50 [3]: 0.21 nM
phosphorylation of STAT5 (pY694) in BCMA CAR T cells, EC50 [1]: 14 pM
sensitivity of STAT5 phosphorylation against VHH-muIL2 [4]: > 200 fold

B1: BCMA-CH3 (dimeric BCMA lacking the muIL2) (protein)
chain: MLQMAGQCSQNEYFDSLLHACIPCQLRCSSNTPPLTCQRYCNASVTNSVKGTNAEPKSPKSADKTHTAPQPREPQVYTLPPSRDELTKNQVSLTCLVKGFYPSDIAVEWESNGQPENNYKTTPPVLDSDGSFFLYSKLTVDKSRWQQGNVFSCSVMHEALHNHYTQKSLSLSPGK
percent of cells in the upper right quadrant (CD45+ AF647+) [5]: 1.08%
percent of cells in the upper right quadrant (CD45+ AF647+) [6]: 0.00572%
percent of cells in the upper right quadrant (CD45+ AF647+) [7]: 0.032%
percent of cells in the upper right quadrant (CD45+ AF647+) [8]: 47.4%
percent of cells in the upper right quadrant (CD45+ AF647+) [9]: 12.2%
percent of cells in the upper right quadrant (CD45+ AF647+) [10]: 5.26%
percent of cells in the upper right quadrant (CD45+ AF647+) [11]: 0.096%
percent of cells in the upper right quadrant (CD45+ AF647+) [12]: 0.02%
percent of cells in the upper right quadrant (CD45+ AF647+) [13]: 0.69%
percent of cells in the upper right quadrant (CD45+ AF647+) [14]: 1.69%
percent of cells in the upper right quadrant (CD45+ AF647+) [15]: 0.13%
percent of cells in the upper right quadrant (CD45+ AF647+) [16]: 1.01%
percent of cells in the upper right quadrant (CD45+ AF647+) [17]: 0.18%
percent of cells in the upper right quadrant (CD45+ AF647+) [18]: 3.97%
percent of cells in the upper right quadrant (CD45+ AF647+) [19]: 0.044%
percent of cells in the upper right quadrant (CD45+ AF647+) [20]: 0.75%
percent of cells in the upper right quadrant (CD45+ AF647+) [21]: 0.013%
percent of cells in the upper right quadrant (CD45+ AF647+) [22]: 0.054%
percent of cells in the upper right quadrant (CD45+ AF647+) [23]: 0.058%
percent of cells in the upper right quadrant (CD45+ AF647+) [24]: 0.2%
percent of cells in the upper right quadrant (CD45+ AF647+) [25]: 2.69%
percent of cells in the upper right quadrant (CD45+ AF647+) [26]: 1.38%
percent of cells in the upper right quadrant (CD45+ AF647+) [27]: 0.13%
EC50 (read off the curve) [28]: 0.2 nM
percent of cells in the upper right quadrant (CD45+ AF647+) [29]: 0.21%

B2: BCMA-CH3-Neo-2/15 CAR-engager (protein)
chain: MLQMAGQCSQNEYFDSLLHACIPCQLRCSSNTPPLTCQRYCNASVTNSVKGTNAEPKSPKSADKTHTAPQPREPQVYTLPPSRDELTKNQVSLTCLVKGFYPSDIAVEWESNGQPENNYKTTPPVLDSDGSFFLYSKLTVDKSRWQQGNVFSCSVMHEALHNHYTQKSLSLSPGKGSHMPKKKIQLHAEHALYDALMILNIVKTNSPPAEEKLEDYAFNFELILEEIARLFESGDQKDEAEKAKRMKEWMKRIKTTASEDEQEEMANAIITILQSWIFS
lowest threshold of induced expression of CD69 in CAR T cells [30]: 0.01 nM
